# Results taken from paper doi:10.1101/2021.02.02.429374 (bioRxiv, 2021).
# Target: yeast microtubules (assembled from tubulin purified from yeast, Tub1/Tub2-6His) (yeast, UniProt P09733 1-447; P02557 1-457)
# Experiment: TIRF microscopy-based microtubule-binding assay
# Chain of yeast microtubules (assembled from tubulin purified from yeast, Tub1/Tub2-6His) (P09733 whole entry, chain 1 of 2): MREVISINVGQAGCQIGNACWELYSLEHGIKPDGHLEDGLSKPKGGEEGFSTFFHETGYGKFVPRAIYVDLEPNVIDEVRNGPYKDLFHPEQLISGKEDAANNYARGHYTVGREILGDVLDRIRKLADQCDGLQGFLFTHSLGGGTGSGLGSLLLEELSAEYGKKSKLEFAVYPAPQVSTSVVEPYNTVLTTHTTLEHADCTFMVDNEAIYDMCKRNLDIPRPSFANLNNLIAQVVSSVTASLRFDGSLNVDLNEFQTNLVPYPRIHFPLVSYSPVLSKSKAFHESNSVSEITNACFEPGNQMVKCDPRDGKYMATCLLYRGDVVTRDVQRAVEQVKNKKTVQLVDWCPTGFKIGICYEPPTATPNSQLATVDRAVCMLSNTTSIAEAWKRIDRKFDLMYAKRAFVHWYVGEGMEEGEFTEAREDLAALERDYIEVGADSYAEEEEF
# Chain of yeast microtubules (assembled from tubulin purified from yeast, Tub1/Tub2-6His) (P02557 whole entry, chain 2 of 2): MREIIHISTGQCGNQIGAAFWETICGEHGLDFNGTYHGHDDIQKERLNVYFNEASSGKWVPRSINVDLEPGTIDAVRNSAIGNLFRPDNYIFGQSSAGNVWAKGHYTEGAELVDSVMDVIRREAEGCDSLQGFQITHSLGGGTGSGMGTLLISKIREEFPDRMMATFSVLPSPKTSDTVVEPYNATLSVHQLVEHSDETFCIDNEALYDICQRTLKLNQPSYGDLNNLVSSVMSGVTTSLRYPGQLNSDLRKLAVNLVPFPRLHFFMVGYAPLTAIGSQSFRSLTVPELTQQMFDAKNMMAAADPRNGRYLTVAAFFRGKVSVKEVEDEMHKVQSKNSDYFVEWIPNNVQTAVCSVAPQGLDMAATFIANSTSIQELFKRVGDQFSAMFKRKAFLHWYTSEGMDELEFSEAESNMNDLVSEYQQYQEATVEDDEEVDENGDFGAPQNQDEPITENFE
row,Kd,Binder
1,806 nM,"She1-NLS^SV40-HaloTag (other, HaloTag-TMR ligand on the HaloTag) MNDKLQEEHNEKDTTSQINGFTPPHMSIDFHSNNNSNIIETIGVSKRLGNSVLSELDSRASSKFEFLKDQSEQQYNGDKNNEPKSGSYNINEFFQAKHDSQFGQMESLDTHYTLLHTPKRKSQHAIPQDRSDSMKRSRPSRSIPYTTPVVNDITRRIRRLKLRNSLVNGNDIVARARSMQANSNINSIKNTPLSKPKPFMHKPNFLMPTTNSLNKINSAHRNTSSSSTASSIPRSKVHRSISIRDLHAKTKPVERTPVAQGTNSQLKNSVSVFDRLYKQTTFSRSTSMNNLSSGTSAKSKEHTNVKTRLVKSKTSGSLSSNLKQSTATGTKSDRPIWRGSGSAAAPKKKRKVG"
2,854 nM,"She1-HaloTag^TMR (wild-type She1) (natural protein, budding yeast, UniProt P38200 1-338, looked up, HaloTag-TMR ligand on the HaloTag) MNDKLQEEHNEKDTTSQINGFTPPHMSIDFHSNNNSNIIETIGVSKRLGNSVLSELDSRASSKFEFLKDQSEQQYNGDKNNEPKSGSYNINEFFQAKHDSQFGQMESLDTHYTLLHTPKRKSQHAIPQDRSDSMKRSRPSRSIPYTTPVVNDITRRIRRLKLRNSLVNGNDIVARARSMQANSNINSIKNTPLSKPKPFMHKPNFLMPTTNSLNKINSAHRNTSSSSTASSIPRSKVHRSISIRDLHAKTKPVERTPVAQGTNSQLKNSVSVFDRLYKQTTFSRSTSMNNLSSGTSAKSKEHTNVKTRLVKSKTSGSLSSNLKQSTATGTKSDRPIWR"
